Results: patent publication US20220177602A1 (MacroGenics, published 2022)

Assays:
[1] = biological target: T1, soluble recombinant human FcγRIIIa (human, UniProt P08637 17-208, limits assumed); assay: indirect competitive ELISA, FcγRIIIa coated, competitor MGAH22-Bt, against margetuximab Reference Standard; stored 2-8° C., 1 month
T1 construct: Coated on the ELISA plate; also called CD16a; Fcγ Receptor subtype IIIa
Procedure: (§1) Margetuximab contains point mutations in the Fc-domain that enhance the interaction of the margetuximab constant region with some human Fc receptors, in particular the Fcγ Receptor subtype […] (FcγRIIIa), also referred to as CD16a. The potency of the Fc domain is assessed with an indirect competitive enzyme linked immunosorbent assay (ELISA) essentially as described. The quantification of the binding of margetuximab test article Fc to the FcγRIIIa is measured by its ability to compete against the binding of a biotin-labeled margetuximab competitor sample (MGAH22-Bt). To perform the assay, soluble recombinant human FcγRIIIa is coated to the solid phase (96-well assay plates). A dilution series of margetuximab Test Article (TA) in a constant concentration of MGAH22-Bt is allowed to bind to the immobilized FcγRIIIa. A dilution-series of the test article and of the margetuximab Reference Standard is analyzed in this manner on the same assay plate, in order to generate dose-response curves for both the test article and the margetuximab Reference Standard. […] Oxidation of the added AP substrate by the conjugated AP yields a color product that can be measured at 405±10 nm. The intensity (absorbance) of the color signal is measured using a microplate reader. […] Data are fitted to a constrained four-parameter logistic model to describe absorbance signal as a function of margetuximab concentration. […]

[2] = biological target: T1, soluble recombinant human FcγRIIIa; assay: indirect competitive ELISA, FcγRIIIa coated, competitor MGAH22-Bt, against margetuximab Reference Standard; stored 2-8° C., 0 months
Procedure: as §1

[3] = biological target: T1, soluble recombinant human FcγRIIIa; assay: indirect competitive ELISA, FcγRIIIa coated, competitor MGAH22-Bt, against margetuximab Reference Standard; stored 2-8° C., 3 months
Procedure: as §1

[4] = biological target: T1, soluble recombinant human FcγRIIIa; assay: indirect competitive ELISA, FcγRIIIa coated, competitor MGAH22-Bt, against margetuximab Reference Standard; stored 2-8° C., 6 months
Procedure: as §1

[5] = biological target: T1, soluble recombinant human FcγRIIIa; assay: indirect competitive ELISA, FcγRIIIa coated, competitor MGAH22-Bt, against margetuximab Reference Standard; stored 2-8° C., 9 months
Procedure: as §1

[6] = biological target: T1, soluble recombinant human FcγRIIIa; assay: indirect competitive ELISA, FcγRIIIa coated, competitor MGAH22-Bt, against margetuximab Reference Standard; stored 2-8° C., 12 months
Procedure: as §1

[7] = biological target: T1, soluble recombinant human FcγRIIIa; assay: indirect competitive ELISA, FcγRIIIa coated, competitor MGAH22-Bt, against margetuximab Reference Standard; stored 2-8° C., 18 months
Procedure: as §1

[8] = biological target: T1, soluble recombinant human FcγRIIIa; assay: indirect competitive ELISA, FcγRIIIa coated, competitor MGAH22-Bt, against margetuximab Reference Standard; stored 2-8° C., 24 months
Procedure: as §1

[9] = biological target: T1, soluble recombinant human FcγRIIIa; assay: indirect competitive ELISA, FcγRIIIa coated, competitor MGAH22-Bt, against margetuximab Reference Standard; stored 2-8° C., 30 months
Procedure: as §1

[10] = biological target: T1, soluble recombinant human FcγRIIIa; assay: indirect competitive ELISA, FcγRIIIa coated, competitor MGAH22-Bt, against margetuximab Reference Standard; stored 2-8° C., 33 months
Procedure: as §1

[11] = biological target: T1, soluble recombinant human FcγRIIIa; assay: indirect competitive ELISA, FcγRIIIa coated, competitor MGAH22-Bt, against margetuximab Reference Standard; stored 2-8° C., 36 months
Procedure: as §1

[12] = biological target: T1, soluble recombinant human FcγRIIIa; assay: indirect competitive ELISA, FcγRIIIa coated, competitor MGAH22-Bt, against margetuximab Reference Standard; stored 2-8° C., 48 months
Procedure: as §1

[13] = biological target: T1, soluble recombinant human FcγRIIIa; assay: indirect competitive ELISA, FcγRIIIa coated, competitor MGAH22-Bt, against margetuximab Reference Standard; stored 25 ± 2° C., column head 1 month
Procedure: as §1

[14] = biological target: T1, soluble recombinant human FcγRIIIa; assay: indirect competitive ELISA, FcγRIIIa coated, competitor MGAH22-Bt, against margetuximab Reference Standard; stored 25 ± 2° C., column head 0 months
Procedure: as §1

[15] = biological target: T1, soluble recombinant human FcγRIIIa; assay: indirect competitive ELISA, FcγRIIIa coated, competitor MGAH22-Bt, against margetuximab Reference Standard; stored 25 ± 2° C., column head 2 months
Procedure: as §1

[16] = biological target: T1, soluble recombinant human FcγRIIIa; assay: indirect competitive ELISA, FcγRIIIa coated, competitor MGAH22-Bt, against margetuximab Reference Standard; stored 25 ± 2° C., column head 3 months
Procedure: as §1

[17] = biological target: T1, soluble recombinant human FcγRIIIa; assay: indirect competitive ELISA, FcγRIIIa coated, competitor MGAH22-Bt, against margetuximab Reference Standard; stored 25 ± 2° C., column head 4 months
Procedure: as §1

[18] = biological target: T1, soluble recombinant human FcγRIIIa; assay: indirect competitive ELISA, FcγRIIIa coated, competitor MGAH22-Bt, against margetuximab Reference Standard; stored 25 ± 2° C., column head 5 months
Procedure: as §1

[19] = biological target: T1, soluble recombinant human FcγRIIIa; assay: indirect competitive ELISA, FcγRIIIa coated, competitor MGAH22-Bt, against margetuximab Reference Standard; stored 25 ± 2° C., column head 6 months
Procedure: as §1

T1 sequence (P08637 17-208 limits assumed): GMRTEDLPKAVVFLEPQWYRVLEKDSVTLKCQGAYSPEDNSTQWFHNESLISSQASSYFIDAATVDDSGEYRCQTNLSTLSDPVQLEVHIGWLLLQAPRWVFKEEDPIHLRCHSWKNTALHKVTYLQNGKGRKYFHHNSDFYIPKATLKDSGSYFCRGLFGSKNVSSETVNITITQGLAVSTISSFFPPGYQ

B1: margetuximab (antibody, human IgG1, kappa)
heavy: QVQLQQSGPELVKPGASLKLSCTASGFNIKDTYIHWVKQRPEQGLEWIGRIYPTNGYTRYDPKFQDKATITADTSSNTAYLQVSRLTSEDTAVYYCSRWGGDGFYAMDYWGQGASVTVSSASTKGPSVFPLAPSSKSTSGGTAALGCLVKDYFPEPVTVSWNSGALTSGVHTFPAVLQSSGLYSLSSVVTVPSSSLGTQTYICNVNHKPSNTKVDKRVEPKSCDKTHTCPPCPAPELVGGPSVFLLPPKPKDTLMISRTPEVTCVVVDVSHEDPEVKFNWYVDGVEVHNAKTKPPEEQYNSTLRVVSVLTVLHQDWLNGKEYKCKVSNKALPAPIEKTISKAKGQPREPQVYTLPPSRDELTKNQVSLTCLVKGFYPSDIAVEWESNGQPENNYKTTPLVLDSDGSFFLYSKLTVDKSRWQQGNVFSCSVMHEALHNHYTQKSLSLSPGK
light: DIVMTQSHKFMSTSVGDRVSITCKASQDVNTAVAWYQQKPGHSPKLLIYSASFRYTGVPDRFTGSRSGTDFTFTISSVQAEDLAVYYCQQHYTTPPTFGGGTKVEIKRTVAAPSVFIFPPSDEQLKSGTASVVCLLNNFYPREAKVQWKVDNALQSGNSQESVTEQDSKDSTYSLSSTLTLSKADYEKHKVYACEVTHQGLSSPVTKSFNRGEC
notes: Chimeric Fc-optimized IgG1/kappa monoclonal antibody; Tested as drug product Lot A in the F1 formulation after storage; also called MGAH22; Margetuximab DP Lot A; copies: 2 + 2
For B1, the “relative potency by FcγRIIIa Binding ELISA (100% x IC50 Reference Standard/IC50 Test Article)” value [1] was 81%, the “relative potency by FcγRIIIa Binding ELISA (100% x IC50 Reference Standard/IC50 Test Article)” value [2] was 76% and the “relative potency by FcγRIIIa Binding ELISA (100% x IC50 Reference Standard/IC50 Test Article)” value [3] was 92%. The “relative potency by FcγRIIIa Binding ELISA (100% x IC50 Reference Standard/IC50 Test Article)” value [4] was 103%, the “relative potency by FcγRIIIa Binding ELISA (100% x IC50 Reference Standard/IC50 Test Article)” value [5] was 106% and the “relative potency by FcγRIIIa Binding ELISA (100% x IC50 Reference Standard/IC50 Test Article)” value [6] was 110%. For the same binder, the “relative potency by FcγRIIIa Binding ELISA (100% x IC50 Reference Standard/IC50 Test Article)” value [7] was 105%, the “relative potency by FcγRIIIa Binding ELISA (100% x IC50 Reference Standard/IC50 Test Article)” value [8] was 100% and the “relative potency by FcγRIIIa Binding ELISA (100% x IC50 Reference Standard/IC50 Test Article)” value [9] was 103%. The “relative potency by FcγRIIIa Binding ELISA (100% x IC50 Reference Standard/IC50 Test Article)” value [10] was 107%, the “relative potency by FcγRIIIa Binding ELISA (100% x IC50 Reference Standard/IC50 Test Article)” value [11] was 107% and the “relative potency by FcγRIIIa Binding ELISA (100% x IC50 Reference Standard/IC50 Test Article)” value [12] was 101%. The “relative potency by FcγRIIIa Binding ELISA (100% x IC50 Reference Standard/IC50 Test Article)” value [13] was 82%, the “relative potency by FcγRIIIa Binding ELISA (100% x IC50 Reference Standard/IC50 Test Article)” value [14] was 76% and the “relative potency by FcγRIIIa Binding ELISA (100% x IC50 Reference Standard/IC50 Test Article)” value [15] was 100%. For the same binder, the “relative potency by FcγRIIIa Binding ELISA (100% x IC50 Reference Standard/IC50 Test Article)” value [16] was 99%, the “relative potency by FcγRIIIa Binding ELISA (100% x IC50 Reference Standard/IC50 Test Article)” value [17] was 104% and the “relative potency by FcγRIIIa Binding ELISA (100% x IC50 Reference Standard/IC50 Test Article)” value [18] was 76%. The “relative potency by FcγRIIIa Binding ELISA (100% x IC50 Reference Standard/IC50 Test Article)” value [19] was 82%.
